Experimental data taken from the supplement of paper PMC10567573.

B1: ZNF263 (parent)
chain: FAHSSNLLRHQRIHTGERPYKCPE

Variants of: B1
Assay: protein stability index of a GFP-peptide fusion (GPS, HEK-293T) (PSI 1-6); higher = more stable
Details: c terminus: a fixed tail appended
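Also: lentivirally expressed fusions sorted by FACS into six bins by GFP to DsRed ratio, PSI derived from sequencing read proportions per bin multiplied by bin number.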

Protein stability index of substitutions, site by site:
I13: F 2.14; K 2.68; V 2.13; A 2.85; G 2.91; P 3.22; Q 2.83; C 2.46; M 2.12; W 1.99; Y 2.43; S 2.68; N 2.99; E 3.23; L 2.07; D 3.09; H 2.77; T 2.82; R 2.39
L7: K 2.54; V 2.68; T 2.45; Y 1.6; R 2.58; P 2.02; S 2.52; C 2.08; G 2.43; E 3.14; F 1.84; H 2.94; N 2.93; I 2.2; Q 3.21; A 2.83; W 2.48; M 2.39; D 2.75
N6: S 2.27; E 2.62; G 2.21; I 1.56; L 1.58; C 1.4; A 1.77; H 2; Q 2.49; D 2.41; T 2.3; V 1.91; K 2.17; W 3.04; Y 1.63; F 1.73; M 2.15; R 1.99; P 1.98
H10: Y 2.51; T 2.2; I 1.81; E 2.77; K 1.73; C 2.76; L 1.94; F 1.69; S 1.95; Q 2.37; G 2.44; W 1.8; A 2.38; R 1.8; P 2.82; M 1.91; N 2.38; V 1.79; D 3.13
R9: A 2.39; V 2.58; T 2.9; F 2.06; P 3.19; L 2.88; Q 2.87; G 2.45; C 2.68; I 2.21; S 2.63; K 2.93; E 3.23; H 2.85; D 2.62; Y 2.36; M 3.05; N 2.85
R12: S 2.8; V 2.73; D 3.3; G 2.72; Q 3.09; K 2.56; Y 2.1; F 2.17; T 2.48; E 2.95; I 2.33; P 2.38; H 3.01; N 2.84; L 2.44; A 2.91; C 2.54; W 1.87; M 2.52
Q11: G 2.18; H 2.5; Y 2.49; R 2.2; A 1.61; M 1.84; S 1.98; I 1.31; F 1.48; C 3.7; T 2.28; K 2.03; V 2.14; L 1.69; P 1.79; N 3.13; E 2.56; D 2.98
S5: V 2.12; W 2.24; Y 2.13; H 1.81; L 1.96; D 2.87; Q 2.15; R 2.44; F 1.94; M 2.28; E 2.75; I 2.31; N 2.3; G 1.74; K 1.91; P 2.25; T 2.7
L8: P 2.78; K 2.46; Q 2.97; C 2.13; H 2.01; T 3.04; N 2.8; A 2.37; M 2.68; R 2.53; D 3.05; F 1.8; Y 2.78; S 3.14; W 2.64; E 3.3; G 2.35; V 2.55; I 2.71
